From US20190153112A1 (IMMUTEP S A S, published 2019)

Experiments:
[1] = biological target: human LAG-3 protein (Lymphocyte activation gene-3) on the cell surface (human) (UniProt P18627); assay: flow cytometry on LAG-3-transfected CHO cells; antibody 0 ng/ml (no-antibody background)
[2] = biological target: human LAG-3 protein (Lymphocyte activation gene-3) on the cell surface (human) (UniProt P18627); assay: flow cytometry on CD4+ cells of SEB-stimulated PBMCs (Donor 1); antibody 2326 ng/ml
[3] = biological target: human LAG-3 protein (Lymphocyte activation gene-3) on the cell surface (human) (UniProt P18627); assay: flow cytometry on CD4+ cells of SEB-stimulated PBMCs (Donor 1); antibody 1.6 ng/ml
[4] = biological target: human LAG-3 protein (Lymphocyte activation gene-3) on the cell surface (human) (UniProt P18627); assay: flow cytometry on LAG-3-transfected CHO cells; antibody 500 ng/ml
[5] = biological target: human LAG-3 protein (Lymphocyte activation gene-3) on the cell surface (human) (UniProt P18627); assay: flow cytometry on LAG-3-transfected CHO cells; antibody 100 ng/ml
[6] = biological target: human LAG-3 protein (Lymphocyte activation gene-3) on the cell surface (human) (UniProt P18627); assay: flow cytometry on CD8+ cells of SEB-stimulated PBMCs (Donor 1); antibody 29 ng/ml
[7] = biological target: human LAG-3 protein (Lymphocyte activation gene-3) on the cell surface (human) (UniProt P18627); assay: flow cytometry on CD4+ cells of SEB-stimulated PBMCs (Donor 1); antibody 29 ng/ml
[8] = biological target: human LAG-3 protein (Lymphocyte activation gene-3) on the cell surface (human) (UniProt P18627); assay: flow cytometry on CD4+ cells of SEB-stimulated PBMCs (Donor 1), from Table 13
[9] = biological target: IMP321 (recombinant soluble human LAG-3Ig fusion protein) (human) (UniProt P18627); assay: FACS, LAG-3Ig-Alexa 488 (1 µg/ml) pre-incubated with antibody 11000 ng/ml, then bound to Raji (MHC class II+) cells
IMP321 (recombinant soluble human LAG-3Ig fusion protein) (human), sequence (P18627 23-450): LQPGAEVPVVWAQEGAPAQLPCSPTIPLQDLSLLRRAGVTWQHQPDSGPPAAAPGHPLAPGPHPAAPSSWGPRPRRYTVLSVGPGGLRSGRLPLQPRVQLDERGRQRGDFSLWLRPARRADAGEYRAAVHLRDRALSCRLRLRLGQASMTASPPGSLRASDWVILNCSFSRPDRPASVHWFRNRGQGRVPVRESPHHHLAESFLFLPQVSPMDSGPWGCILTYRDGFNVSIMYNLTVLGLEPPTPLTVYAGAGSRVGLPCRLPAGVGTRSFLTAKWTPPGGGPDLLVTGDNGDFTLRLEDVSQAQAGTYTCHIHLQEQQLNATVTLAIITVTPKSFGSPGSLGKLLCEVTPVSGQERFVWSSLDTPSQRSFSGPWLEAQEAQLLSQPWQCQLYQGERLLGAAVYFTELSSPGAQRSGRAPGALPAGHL

[10] = biological target: human LAG-3 protein (Lymphocyte activation gene-3) on the cell surface (human) (UniProt P18627); assay: flow cytometry on LAG-3-expressing CHO cells, mean of four independent experiments
[11] = biological target: human LAG-3 protein (Lymphocyte activation gene-3) on the cell surface (human) (UniProt P18627); assay: flow cytometry on CD8+ cells of SEB-stimulated PBMCs (Donor 1); antibody 0.4 ng/ml
[12] = biological target: human LAG-3 protein (Lymphocyte activation gene-3) on the cell surface (human) (UniProt P18627); assay: flow cytometry on CD4+ cells of SEB-stimulated PBMCs (Donor 1); antibody 7 ng/ml
[13] = biological target: IMP321 (recombinant soluble human LAG-3Ig fusion protein) (human) (UniProt P18627); assay: cell-based or functional assay
[14] = biological target: IMP321 (recombinant soluble human LAG-3Ig fusion protein) (human) (UniProt P18627); assay: FACS, LAG-3Ig-Alexa 488 (1 µg/ml) with antibody 0 ng/ml (no-antibody value), bound to Raji (MHC class II+) cells
[15] = biological target: IMP321 (recombinant soluble human LAG-3Ig fusion protein) (human) (UniProt P18627); assay: FACS, LAG-3Ig-Alexa 488 (1 µg/ml) pre-incubated with antibody 297 ng/ml, then bound to Raji (MHC class II+) cells
[16] = biological target: human LAG-3 protein (Lymphocyte activation gene-3) on the cell surface (human) (UniProt P18627); assay: flow cytometry on CD8+ cells of SEB-stimulated PBMCs (Donor 1); antibody 1.6 ng/ml
[17] = biological target: human LAG-3 protein (Lymphocyte activation gene-3) on the cell surface (human) (UniProt P18627); assay: flow cytometry on CD4+ cells of SEB-stimulated PBMCs (Donor 1); antibody 10000 ng/ml
[18] = biological target: human LAG-3 protein (Lymphocyte activation gene-3) on the cell surface (human) (UniProt P18627); assay: flow cytometry on CD8+ cells of SEB-stimulated PBMCs (Donor 1); antibody 126 ng/ml
[19] = biological target: human LAG-3 protein (Lymphocyte activation gene-3) on the cell surface (human) (UniProt P18627); assay: flow cytometry on LAG-3-transfected CHO cells; antibody 0.4 ng/ml
[20] = biological target: IMP321 (recombinant soluble human LAG-3Ig fusion protein) (human) (UniProt P18627); assay: FACS, LAG-3Ig-Alexa 488 (1 µg/ml) pre-incubated with antibody 27 ng/ml, then bound to Raji (MHC class II+) cells
[21] = biological target: human LAG-3 protein (Lymphocyte activation gene-3) on the cell surface (human) (UniProt P18627); assay: flow cytometry on CD4+ cells of SEB-stimulated PBMCs (Donor 1); antibody 0 ng/ml (no-antibody background)
[22] = biological target: human LAG-3 protein (Lymphocyte activation gene-3) on the cell surface (human) (UniProt P18627); assay: flow cytometry on CD8+ cells of SEB-stimulated PBMCs (Donor 1); antibody 10000 ng/ml
[23] = biological target: human LAG-3 protein (Lymphocyte activation gene-3) on the cell surface (human) (UniProt P18627); assay: flow cytometry on LAG-3-transfected CHO cells; antibody 2000 ng/ml
[24] = biological target: human LAG-3 protein (Lymphocyte activation gene-3) on the cell surface (human) (UniProt P18627); assay: flow cytometry on CD4+ cells of SEB-stimulated PBMCs (Donor 1); antibody 126 ng/ml
[25] = biological target: human LAG-3 protein (Lymphocyte activation gene-3) on the cell surface (human) (UniProt P18627); assay: flow cytometry on CD4+ cells of SEB-stimulated PBMCs (Donor 1); antibody 0.4 ng/ml
[26] = biological target: IMP321 (recombinant soluble human LAG-3Ig fusion protein) (human) (UniProt P18627); assay: Biacore, 17B4 antibody on the chip and LAG-3Ig in the running buffer
[27] = biological target: human LAG-3 protein (Lymphocyte activation gene-3) on the cell surface (human) (UniProt P18627); assay: flow cytometry on LAG-3-transfected CHO cells; antibody 1 ng/ml

human LAG-3 protein (Lymphocyte activation gene-3) on the cell surface (human), sequence (P18627 other isoform, or with tags, fused parts or gaps): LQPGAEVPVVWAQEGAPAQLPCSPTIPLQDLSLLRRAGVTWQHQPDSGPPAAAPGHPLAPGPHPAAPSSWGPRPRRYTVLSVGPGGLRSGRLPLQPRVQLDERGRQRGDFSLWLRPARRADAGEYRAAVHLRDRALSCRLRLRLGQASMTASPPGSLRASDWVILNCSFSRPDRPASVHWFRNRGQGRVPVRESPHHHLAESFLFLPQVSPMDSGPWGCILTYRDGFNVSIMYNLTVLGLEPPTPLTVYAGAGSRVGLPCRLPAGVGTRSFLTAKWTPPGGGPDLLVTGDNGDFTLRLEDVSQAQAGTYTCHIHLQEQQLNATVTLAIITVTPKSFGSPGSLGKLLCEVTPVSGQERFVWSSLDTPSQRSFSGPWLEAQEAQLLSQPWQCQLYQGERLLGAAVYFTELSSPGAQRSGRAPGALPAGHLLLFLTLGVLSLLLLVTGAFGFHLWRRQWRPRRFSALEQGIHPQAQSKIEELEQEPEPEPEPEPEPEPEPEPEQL

“antagonistic anti-LAG-3 mouse monoclonal antibody 17B4” was tested, and the MFI [1] was 156 MFI, the MFI [2] was 1940 MFI and the MFI [3] was 192 MFI. For the same substance, the MFI [4] was 4760 MFI, the MFI [5] was 3170 MFI and the MFI [6] was 1400 MFI. For the same substance, the MFI [7] was 675 MFI, the EC50 [8] was 0.5 nM and the MFI of sLAG-3Ig-Alexa 488 [9] was -11 MFI. It also gave an EC50 [10] of 0.7 nM, an MFI [11] of 195 MFI and an MFI [12] of 324 MFI. For the same substance, the [CCL4] in THP-1 monocytic cells supernatant; IMP321 20 ng/ml pre-incubated with antibody 2 ng/ml [13] was 1960 pg/mL, the [CCL4] in THP-1 monocytic cells supernatant; IMP321 20 ng/ml pre-incubated with antibody 20 ng/ml [13] was 1550 pg/mL and the [CCL4] in THP-1 monocytic cells supernatant; IMP321 20 ng/ml pre-incubated with antibody 200 ng/ml [13] was 860 pg/mL. For the same substance, the [CCL4] in THP-1 monocytic cells supernatant; IMP321 20 ng/ml pre-incubated with antibody 2000 ng/ml [13] was 947 pg/mL, the [CCL4] in THP-1 monocytic cells supernatant; IMP321 20 ng/ml pre-incubated with antibody 20000 ng/ml [13] was 860 pg/mL and the [CCL4] in THP-1 monocytic cells supernatant; IMP321 20 ng/ml, antibody 0 ng/ml (no-antibody value) [13] was 2110 pg/mL. For the same substance, the MFI of sLAG-3Ig-Alexa 488 [14] was 284 MFI, the MFI of sLAG-3Ig-Alexa 488 [15] was 73 MFI and the MFI [16] was 309 MFI. For the same substance, the MFI [17] was 1600 MFI, the MFI [18] was 2840 MFI and the MFI [19] was 179 MFI. For the same substance, the MFI of sLAG-3Ig-Alexa 488 [20] was 260 MFI, the MFI [21] was 106 MFI and the MFI [22] was 5140 MFI. For the same substance, the MFI [23] was 5480 MFI, the MFI [24] was 1240 MFI and the MFI [25] was 143 MFI. It also gave a Ka [26] of 2.71e+08 M⁻¹, a Kd [26] of 3.69 nM and a koff [26] of 0.000818 s⁻¹. It also gave a kon [26] of 222000 M⁻¹ s⁻¹ and an MFI [27] of 247 MFI.
